# Publication doi:10.1101/2022.10.28.512841 (bioRxiv, 2022)
# Target: the molecule itself
# Test: SEC-SAXS
protein,measurement,value
gated spinach aquaporin SoPIP2;1 (natural protein) MSKEVSEEAQAHQHGKDYVDPPPAPFFDLGELKLWSFWRAAIAEFIATLLFLYITVATVIGHSKETVVCGSVGLLGIAWAFGGMIFVLVYCTAGISGGHINPAVTFGLFLARKVSLLRALVYMIAQCLGAICGVGLVKAFMKGPYNQFGGGANSVALGYNKGTALGAEIIGTFVLVYTVFSATDPKRSARDSHVPILAPLPIGFAVFMVHLATIPITGTGINPARSFGAAVIFNSNKVWDDQWIFWVGPFIGAAVAAAYHQYVLRAAAIKALGSFRSNPTN,binding result,binds
